Experiment [1] has as its target T1, human PD-L1 protein (human, UniProt Q9NZQ7 19-238).
T1 construct: Soluble protein used for the KD measurements; construct not described; also called hPD-L1; CD274
As to the kind of experiment: KD; method not stated.

Experiment [2] deals with T2, cynomolgus PD-L1 protein (cynomolgus monkey, UniProt G7PSE7 19-238).
T2 construct: also called cyPD-L1; Cyno PD-L1
As to the kind of experiment: KD; method not stated.

For experiment [3], the target named is T1, human PD-L1 protein. Put plainly: KD; method not stated. This is another data set of the same source.
The target in experiment [4] is T2, cynomolgus PD-L1 protein. As to the kind of experiment: KD; method not stated. This is another data set of the same source.
Experiment [5] has as its target T3, mouse PD-L1 protein (mouse, UniProt Q9EP73 19-238).
T3 construct: also called mPD-L1
Put plainly: column 'Cross with mouse?'; method not stated.

For experiment [6], the target named is T1, human PD-L1 protein. Put plainly: half-life of the complex; method not stated.
The target of experiment [7] is T2, cynomolgus PD-L1 protein. Put plainly: half-life of the complex; method not stated.
The target of experiment [8] is T3, mouse PD-L1 protein. Put plainly: KD; method not stated.
The target in experiment [9] is T1, human PD-L1 protein. As to the kind of experiment: KD; method not stated. The source holds these as a separate data set.
In experiment [10] the target is T2, cynomolgus PD-L1 protein. As to the kind of experiment: KD; method not stated. This is another data set of the same source.
For experiment [11], the target named is T1, human PD-L1 protein. Put plainly: half-life of the complex; method not stated. The source holds these as a separate data set.
For experiment [12], the target named is T2, cynomolgus PD-L1 protein. Put plainly: half-life of the complex; method not stated. This is another data set of the same source.
In experiment [13] the target is T4, cynomolgus CD47 protein (cynomolgus monkey, UniProt A0A2K5X523 19-139).
T4 construct: also called cyCD47; Cyno CD47
Put plainly: half-life of the complex; method not stated.

The target of experiment [14] is T5, human CD47 protein (human, UniProt Q08722 19-139, limits assumed).
T5 construct: Soluble protein used for the KD measurements; construct not described; also called hCD47; CD47 (human)
Put plainly: half-life of the complex; method not stated.

For experiment [15], the target named is T4, cynomolgus CD47 protein. Put plainly: KD; method not stated.
Experiment [16] has as its target T5, human CD47 protein. Put plainly: KD; method not stated.
The next experiment addresses T6, mouse CD47 protein (mouse, UniProt Q61735 19-140, limits assumed).
T6 sequence (looked up): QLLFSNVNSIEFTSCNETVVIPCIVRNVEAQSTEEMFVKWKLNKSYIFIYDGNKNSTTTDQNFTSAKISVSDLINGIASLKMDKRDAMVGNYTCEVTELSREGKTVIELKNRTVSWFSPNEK
As to the kind of experiment: column 'Cross-react with mouse'; method not stated.

In experiment [17] the target is T4, cynomolgus CD47 protein. Put plainly: KD; method not stated. The source holds these as a separate data set.
In experiment [18] the target is T4, cynomolgus CD47 protein. Put plainly: half-life of the complex; method not stated. This is another data set of the same source.
Experiment [19] concerns the target T5, human CD47 protein. Put plainly: half-life of the complex; method not stated. The source holds these as a separate data set.
In experiment [20] the target is T4, cynomolgus CD47 protein. Put plainly: KD; method not stated. This is another data set of the same source.
For experiment [21], the target named is T5, human CD47 protein. Put plainly: KD; method not stated. This is another data set of the same source.
Experiment [22] addresses T7, human CD47 on the cell surface (human).
T7 construct: whole, on cells; also called CHO-hCD47; CD47 on HT1080 tumor cells
Put plainly: flow cytometry, CHO cells stably overexpressing human CD47; positive control. On the technique in general: Flow cytometry measures light scatter and fluorescence of single cells or particles in a stream.

Changes are numbered by the printed parent chain. Where two headings read alike, the source gives them in different places.

T3 sequence (Q9EP73 19-238 limits assumed): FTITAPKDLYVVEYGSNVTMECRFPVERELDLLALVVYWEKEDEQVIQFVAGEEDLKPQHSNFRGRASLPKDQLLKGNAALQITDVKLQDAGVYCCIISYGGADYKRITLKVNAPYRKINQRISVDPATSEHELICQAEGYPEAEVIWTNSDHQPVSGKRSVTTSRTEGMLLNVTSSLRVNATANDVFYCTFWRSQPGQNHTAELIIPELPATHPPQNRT
T5 sequence (Q08722 19-139 limits assumed): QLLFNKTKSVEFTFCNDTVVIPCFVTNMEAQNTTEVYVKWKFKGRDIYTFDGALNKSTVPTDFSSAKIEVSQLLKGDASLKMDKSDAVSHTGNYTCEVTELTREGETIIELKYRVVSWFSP
T2 sequence (G7PSE7 entry or part of it): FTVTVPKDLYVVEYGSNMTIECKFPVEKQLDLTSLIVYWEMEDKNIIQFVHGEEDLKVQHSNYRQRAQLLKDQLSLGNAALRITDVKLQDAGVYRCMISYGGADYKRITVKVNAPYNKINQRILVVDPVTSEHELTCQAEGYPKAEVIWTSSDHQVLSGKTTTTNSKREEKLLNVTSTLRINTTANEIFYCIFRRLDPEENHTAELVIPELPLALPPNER
T1 sequence (Q9NZQ7 19-238 limits assumed): as the sequence (G7PSE7 entry or part of it) above, with T33A, S34A, N62S, Q68R, R82Q, L173F, A185T, I192T, L215H counted along it

B1: PDL1_P06B05_parent (antibody, V domains shown)
VH: EVQLVESGGGLVKPGGSLRLSCAASGFTFSNAWMNWVRQAPGKGLEWVGRIKTKADGGTTDYAAPVKGRFTISRDDSKNTLYLQMNSLKTEDTAVYYCTTDPGSYWDSVYGGMDYWGQGTLVTVSS
VL: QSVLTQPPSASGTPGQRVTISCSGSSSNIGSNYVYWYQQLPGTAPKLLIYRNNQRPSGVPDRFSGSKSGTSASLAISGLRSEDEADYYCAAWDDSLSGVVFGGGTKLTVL
The Kd is the equilibrium constant for the complex coming apart. Take B1: the Kd in the experiment with human PD-L1 protein [1] came to 2.36 nM; in the experiment with cynomolgus PD-L1 protein [2], 3.11 nM; with human PD-L1 protein [3], 4.42 nM; with cynomolgus PD-L1 protein [4], 8.07 nM; in the experiment with mouse PD-L1 protein [5], 207 nM. Besides, the T1/2 with human PD-L1 protein [6] stood at 28.2 min; with cynomolgus PD-L1 protein [7], 10.2 min.

B2: P06B05_S104E (antibody, V domains shown)
VH: B1 VH with S104E
VL: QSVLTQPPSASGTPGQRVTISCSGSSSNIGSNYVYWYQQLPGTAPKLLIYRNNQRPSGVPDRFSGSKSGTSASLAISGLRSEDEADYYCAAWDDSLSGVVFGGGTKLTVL
notes: Variant of P06B05
Regarding B2, the values for the Kd in the experiment with human PD-L1 protein [1], with mouse PD-L1 protein [8] and with cynomolgus PD-L1 protein [2] were 0.8 nM, 23.1 nM and 0.45 nM, respectively.

B3: PDL1_P06B05_245 (antibody, V domains shown)
VH: B1 VH with S104E
VL: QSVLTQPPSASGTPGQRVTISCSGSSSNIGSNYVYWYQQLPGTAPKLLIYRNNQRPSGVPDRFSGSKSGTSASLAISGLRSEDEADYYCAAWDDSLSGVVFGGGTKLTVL
notes: Monospecific antibody; also called anti-PD-L1 antibody P06B05_245
B3: the Kd in the experiment with human PD-L1 protein [9] and with cynomolgus PD-L1 protein [10] was 1.6 nM throughout. Further, the T1/2 amounted to 23.4 min with human PD-L1 protein [11] and 23.7 min in the experiment with cynomolgus PD-L1 protein [12].

B4: P06B05_G112S (antibody, V domains shown)
VH: B1 VH with G112S
VL: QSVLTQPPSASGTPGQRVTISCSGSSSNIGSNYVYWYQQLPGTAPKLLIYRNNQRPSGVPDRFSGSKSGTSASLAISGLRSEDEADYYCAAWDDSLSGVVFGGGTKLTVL
notes: Variant of P06B05
As for B4, the Kd with human PD-L1 protein [1] worked out at 1.69 nM; with mouse PD-L1 protein [8] it was 77.7 nM; in the experiment with cynomolgus PD-L1 protein [2] it was 1.74 nM.

B5: CD47_P14D04_parent (antibody, V domains shown)
VH: EVQLLESGGGLVQPGGSLRLSCAASGFSFSTFTMNWVRQAPGKGLEWVSTISGTGGNTYYADSVKGRFTISRDNSKNTLYLQMNSLRAEDTAVYYCARRRSTVGSNGHSYWFDYWGQGTLVTVSS
VL: not shown
For the molecule B5, the T1/2 with cynomolgus CD47 protein [13] was found to be 2.52 min; with human CD47 protein [14], 3.6 min. For the same molecule, the equilibrium dissociation constant (Kd) was found to be 9.7 nM with cynomolgus CD47 protein [15] and 6.39 nM with human CD47 protein [16].

B6: PDL1_P06A09_parent (antibody, V domains shown)
VH: EVQLVESGGGLVKPGGSLRLSCAASGFTFSNAWMNWVRQAPGKGLEWVGRIKSESDGGTTDYAAPVKGRFTISRDDSKNTLYLQMNSLKTEDTAVYYCTTDYRIDDWGYPYPGMDYWGQGTLVTVSS
VL: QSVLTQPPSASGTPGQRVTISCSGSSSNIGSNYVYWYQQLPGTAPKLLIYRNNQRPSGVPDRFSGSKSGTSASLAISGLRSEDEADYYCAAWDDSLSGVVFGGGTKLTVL
For B6, the figures for the Kd in the experiment with human PD-L1 protein [3], with cynomolgus PD-L1 protein [4] and with mouse PD-L1 protein [5] were 2.97 nM, 5.75 nM and 113 nM, respectively. The results for the T1/2 in the experiment with human PD-L1 protein [6] and with cynomolgus PD-L1 protein [7] were 5.13 min and 2.79 min, respectively.

B7: CD47_P01A11_parent (antibody, V domains shown)
VH: QVQLVQSGAEVKKPGSSVKVSCKASGYTFTNYAISWVRQAPGQGLEWMGGISPLFGTANYAQKFQGRVTITADESTSTAYMELSSLRSEDTAVYYCARDGGRSSDVGWYVGAMDVWGQGTLVTVSS
VL: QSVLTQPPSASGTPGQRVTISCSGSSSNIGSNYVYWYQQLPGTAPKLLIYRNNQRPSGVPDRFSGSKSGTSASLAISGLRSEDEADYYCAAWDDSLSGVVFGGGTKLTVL
notes: also called P01A11_wt
In the experiment with cynomolgus CD47 protein [13], B7 yielded a T1/2 of 21.1 min. For the same molecule, the Kd in the experiment with cynomolgus CD47 protein [15] was 1.02 nM; with mouse CD47 protein it was above 6800 nM; with cynomolgus CD47 protein [17], 1.3 nM.

B8: CD47_P01A11_75 (antibody, V domains shown)
VH: B7 VH with T30S, N31S, L54I, G100A, M113I
VL: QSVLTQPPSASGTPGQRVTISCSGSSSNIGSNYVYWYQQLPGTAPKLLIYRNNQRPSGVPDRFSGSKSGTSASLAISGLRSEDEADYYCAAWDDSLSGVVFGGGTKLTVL
notes: Monospecific antibody; also called anti-CD47 antibody P01A11_75
A word on the EC50: it is the concentration giving half of the maximal effect. Read a low EC50 as a more potent agent. As for B8, the T1/2 worked out at 0.48 min with cynomolgus CD47 protein [18] and 0.49 min with human CD47 protein [19]. Also, the figures for the Kd in the experiment with cynomolgus CD47 protein [20] and in the experiment with human CD47 protein [21] were 105 nM and 75 nM, respectively. A half-maximal effect in experiment [22] (EC50) was put at 0.98 nM.

B9: CD47_P01A08_parent (antibody, V domains shown)
VH: B7 VH with T30S, S35T, L54I, V106G, Y109R, V110G, G111A, A112G, V115Y
VL: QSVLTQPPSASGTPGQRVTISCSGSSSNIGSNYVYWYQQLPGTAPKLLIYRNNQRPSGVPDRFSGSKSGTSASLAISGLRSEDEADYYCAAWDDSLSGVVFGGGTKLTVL
As to B9, the T1/2 in the experiment with cynomolgus CD47 protein [13] amounted to 20.2 min; with human CD47 protein [14], 21.3 min. For the same molecule, the Kd with cynomolgus CD47 protein [15] amounted to 2.08 nM; in the experiment with human CD47 protein [16], 1.72 nM.

B10: CD47_P01A11_497 (antibody, V domains shown)
VH: B7 VH with Y27G, N31S, L54I, G100A, M113L
VL: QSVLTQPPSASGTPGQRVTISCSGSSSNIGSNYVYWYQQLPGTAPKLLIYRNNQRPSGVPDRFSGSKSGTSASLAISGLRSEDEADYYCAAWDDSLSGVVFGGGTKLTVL
notes: Monospecific antibody
With B10, the Kd with cynomolgus CD47 protein [20] worked out at 704 nM; with human CD47 protein [21], 497 nM.

B11: PDL1_P04D09_parent (antibody, V domains shown)
VH: EVQLLESGGGLVQPGGSLRLSCAASGFTFSSYAMSWVRQAPGKGLEWVSAIGVRGGITYYADSVKGRFTISRDNSKNTLYLQMNSLRAEDTAVYYCARERSVGELVGIDWMDHWGQGTLVTVSS
VL: not shown
B11: the dissociation constant (Kd) with human PD-L1 protein [3] turned out to be 0.56 nM; with cynomolgus PD-L1 protein [4] it was 1.15 nM; in the experiment with mouse PD-L1 protein [5] it was 20.4 nM. The T1/2 with human PD-L1 protein [6] is 43.6 min; with cynomolgus PD-L1 protein [7], 20.1 min.

B12: PDL1_P04D09_113 (antibody, V domains shown)
VH: B11 VH with W110Q
VL: not shown
Consider B12, for which the Kd in the experiment with human PD-L1 protein [9] and in the experiment with cynomolgus PD-L1 protein [10] was 1.7 nM in each case. The T1/2 in the experiment with human PD-L1 protein [11] amounted to 22.2 min; in the experiment with cynomolgus PD-L1 protein [12], 23.4 min.

These data come from patent US20210179716A1 (Pfizer, published 2021).
